Experimental findings from publication PMC2199204 are described below.

The target in the assay is DGKζ with a FLAG epitope tag at its COOH terminus (DGKζ-FLAG) (human). The assay is described as follows: co-IP.
DGKζ with a FLAG epitope tag at its COOH terminus (DGKζ-FLAG) (human), sequence (Q13574 whole entry): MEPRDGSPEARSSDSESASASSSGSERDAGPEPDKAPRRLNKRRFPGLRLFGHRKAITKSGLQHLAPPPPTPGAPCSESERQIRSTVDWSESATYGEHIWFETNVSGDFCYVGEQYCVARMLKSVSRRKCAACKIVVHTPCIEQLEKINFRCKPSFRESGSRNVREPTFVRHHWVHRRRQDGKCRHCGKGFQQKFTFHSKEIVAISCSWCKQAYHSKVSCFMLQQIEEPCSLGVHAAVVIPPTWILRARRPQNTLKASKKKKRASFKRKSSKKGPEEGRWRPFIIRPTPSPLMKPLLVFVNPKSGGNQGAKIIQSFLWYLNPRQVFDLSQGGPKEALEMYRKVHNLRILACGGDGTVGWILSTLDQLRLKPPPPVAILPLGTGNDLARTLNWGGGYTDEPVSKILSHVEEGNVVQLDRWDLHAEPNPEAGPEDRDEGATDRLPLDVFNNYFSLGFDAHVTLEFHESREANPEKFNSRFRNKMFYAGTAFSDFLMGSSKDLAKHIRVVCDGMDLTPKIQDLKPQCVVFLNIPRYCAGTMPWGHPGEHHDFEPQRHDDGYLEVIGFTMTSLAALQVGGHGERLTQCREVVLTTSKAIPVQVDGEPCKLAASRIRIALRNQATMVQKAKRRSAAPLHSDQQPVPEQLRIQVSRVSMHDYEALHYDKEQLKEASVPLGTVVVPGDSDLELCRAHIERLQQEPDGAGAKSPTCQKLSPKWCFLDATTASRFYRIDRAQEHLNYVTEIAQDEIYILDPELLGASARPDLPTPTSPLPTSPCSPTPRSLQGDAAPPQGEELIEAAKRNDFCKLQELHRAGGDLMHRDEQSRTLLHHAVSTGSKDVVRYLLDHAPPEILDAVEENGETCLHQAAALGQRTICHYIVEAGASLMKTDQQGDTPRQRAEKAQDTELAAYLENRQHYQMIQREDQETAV

RasGRP with an NH2-terminal HA epitope tag (HA-RasGRP), sequence (O95267 whole entry): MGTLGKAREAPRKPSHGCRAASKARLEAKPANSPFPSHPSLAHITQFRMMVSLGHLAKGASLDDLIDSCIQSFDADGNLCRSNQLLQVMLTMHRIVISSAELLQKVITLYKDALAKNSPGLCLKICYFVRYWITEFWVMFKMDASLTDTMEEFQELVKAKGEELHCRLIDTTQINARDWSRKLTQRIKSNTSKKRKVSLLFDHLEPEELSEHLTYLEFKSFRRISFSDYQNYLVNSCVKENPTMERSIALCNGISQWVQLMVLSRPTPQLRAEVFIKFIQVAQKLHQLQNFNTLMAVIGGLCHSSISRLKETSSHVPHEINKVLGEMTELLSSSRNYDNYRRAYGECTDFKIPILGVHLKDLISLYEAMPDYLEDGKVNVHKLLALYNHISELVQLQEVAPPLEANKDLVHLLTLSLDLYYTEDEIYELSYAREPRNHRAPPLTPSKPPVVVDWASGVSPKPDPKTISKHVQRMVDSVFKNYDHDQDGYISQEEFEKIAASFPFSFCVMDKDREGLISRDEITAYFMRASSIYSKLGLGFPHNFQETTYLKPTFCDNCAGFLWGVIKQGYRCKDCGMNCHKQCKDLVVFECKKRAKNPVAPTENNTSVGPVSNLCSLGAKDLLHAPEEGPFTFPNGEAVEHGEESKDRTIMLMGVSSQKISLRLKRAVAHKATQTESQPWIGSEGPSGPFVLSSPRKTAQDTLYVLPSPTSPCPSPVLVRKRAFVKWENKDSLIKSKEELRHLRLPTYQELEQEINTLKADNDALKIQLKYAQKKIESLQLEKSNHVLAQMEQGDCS

“A15-H-Ras (from UniProt P01112 1-189) (natural protein)” yielded a percent coprecipitated of more than 20%.

For the substance “RasGRP with an NH2-terminal HA epitope tag (HA-RasGRP) (from UniProt O95267 1-797) (natural protein)”, the percent coprecipitated was more than 20%.
